From patent US20170157149A1 (REGENTS OF THE UNIVERSITY OF MICHIGAN, published 2017) come the findings set out here.

No end group written: not given here. Some results are limits rather than exact numbers.

This assay concerns the target T1, scavenger receptor class BI (SR-BI) (UniProt Q8WTV0 1-552, limits assumed).
T1 sequence (looked up): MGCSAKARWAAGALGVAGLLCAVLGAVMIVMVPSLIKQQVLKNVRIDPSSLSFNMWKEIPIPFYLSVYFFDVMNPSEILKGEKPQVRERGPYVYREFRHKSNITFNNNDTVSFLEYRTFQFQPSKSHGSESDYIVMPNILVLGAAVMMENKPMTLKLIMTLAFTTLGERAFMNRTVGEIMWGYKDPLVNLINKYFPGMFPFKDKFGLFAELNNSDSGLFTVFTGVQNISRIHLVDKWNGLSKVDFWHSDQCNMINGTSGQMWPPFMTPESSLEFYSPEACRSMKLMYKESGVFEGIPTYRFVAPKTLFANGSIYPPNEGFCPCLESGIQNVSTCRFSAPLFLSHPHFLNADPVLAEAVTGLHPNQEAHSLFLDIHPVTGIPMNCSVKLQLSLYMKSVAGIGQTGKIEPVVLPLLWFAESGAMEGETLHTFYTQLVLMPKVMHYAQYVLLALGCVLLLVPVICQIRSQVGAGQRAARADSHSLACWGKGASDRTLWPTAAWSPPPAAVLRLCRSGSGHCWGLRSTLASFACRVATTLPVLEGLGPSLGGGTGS
Nature of the assay: cell-based or functional assay.

B1: DIO labeled HDL nanoparticles (synthetic HDL of 22 A peptide and lipids) (other)
peptide: PVLDLFRELLNELLEALKQKLK
modifications: also: sHDL lipid nanoparticle with lipids, DIO tracer label in particle, acetate salt
B1: the “blocking of uptake of DIO labeled HDL nanoparticles by 10 fold excess of HDL (fluorescence microscopy)” value is over 90%.
